For 34 sequences, protein stability index results are on record in the supplement of paper PMC10724198.

± gives the standard deviation of the averaged measurements.

The test system of the series is Saccharomyces cerevisiae. Briefly: protein stability index of tFT-peptide fusion (C-terminal peptide) (PSI (0-1 scale)); higher = more stable (slower turnover). As to conditions: temperature: 30 C. The protocol: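 MPS profiling in S. cerevisiae of the yeast C-terminome library: the last 12 aa of each annotated ORF are fused to the C-terminus of a sfGFP-mCherry timer, after a GGGS linker. Cells are FACS-sorted into 8 mCherry/sfGFP bins and deep-sequenced. PSI runs from 0 (unstable) to 1 (stable); wild type and das1Δ backgrounds, two technical replicates each.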

The mark [1] stands for this setting: genetic background: das1 deletion.

Regarding VKKLLEIRSKSS [GTT2 C-terminal 12 aa], the protein stability index came to 0.681 ± 0.0073 under setting [1] and 0.369 ± 0.0065 (genetic background: wild type).
On to VKKLVTDMLAKI [CFT2 C-terminal 12 aa], for which the protein stability index came to 0.6957 ± 0.00094 under setting [1] and 0.669 ± 0.029 (genetic background: wild type).
For VLSFNPKVWLLV [YAR068W C-terminal 12 aa], in that order: 0.562 ± 0.0081 and 0.0978 ± 0.0096.
For VNGELKYVKPED [AFT1 C-terminal 12 aa], in that order: 0.6945 ± 0.0046 and 0.6909 ± 0.0017.
The matching figures for VPGNPGVVFQNI [CDC60 C-terminal 12 aa]: 0.708 ± 0.018 and 0.75 ± 0.082.
Take VQSTDIAAMQKL [EFB1 C-terminal 12 aa]: the protein stability index reads like this: under setting [1], 0.721 ± 0.014; (genetic background: wild type) 0.683 ± 0.035.
For VRKLSFHVYEDE [ACM1 C-terminal 12 aa], the protein stability index reads like this: under setting [1], 0.6908 ± 0.001; (genetic background: wild type) 0.658 ± 0.0079.
VSKMDCDPLTVA [NIF3 C-terminal 12 aa]: the protein stability index reads like this: under setting [1], 0.678 ± 0.027; (genetic background: wild type) 0.676 ± 0.025.
For “VTFLVFANLRLW [YBR223W-A C-terminal 12 aa]”, in that order: 0.566 ± 0.013 and 0.575 ± 0.027.
The matching figures for VVCFVSYQKLSS [OPI9 C-terminal 12 aa]: 0.635 ± 0.011 and 0.168 ± 0.026.
For VVEALRDAVGDV [NBP35 C-terminal 12 aa], in that order: 0.706 ± 0.014 and 0.696 ± 0.02.
For VVVVPSVVETRK [SSO2 C-terminal 12 aa], the protein stability index is, setting by setting: under setting [1], 0.681 ± 0.031; (genetic background: wild type) 0.668 ± 0.026.
The matching figures for VWADILNKLGKD [ADK1 C-terminal 12 aa]: 0.704 ± 0.013 and 0.719 ± 0.025.
For the sequence VYALSIKRSKLT [EPT1 C-terminal 12 aa], the protein stability index was 0.6803 ± 0.0053 under setting [1] and 0.208 ± 0.0051 (genetic background: wild type).
VYELVDAEALFS [YDR131C C-terminal 12 aa] came in with a protein stability index under setting [1] of 0.745 ± 0.02 and a protein stability index (genetic background: wild type) of 0.682 ± 0.012.
Take WAVGGVELTTDI [GCN1 C-terminal 12 aa]: the protein stability index is, setting by setting: under setting [1], 0.76 ± 0.021; (genetic background: wild type) 0.705 ± 0.026.
WDGNLFVWNGLG [PEX7 C-terminal 12 aa] displayed a protein stability index under setting [1] of 0.7335 ± 0.0029 and a protein stability index (genetic background: wild type) of 0.4319 ± 0.0013.
For WKKDNKIQVVKN [GIM4 C-terminal 12 aa], in that order: 0.725 ± 0.026 and 0.663 ± 0.019.
Consider WPRVASNSGVVV [RPL23A C-terminal 12 aa], for which the protein stability index was found to be 0.7042 ± 0.0044 under setting [1] and 0.679 ± 0.018 (genetic background: wild type).
Consider WTALVVNILGRF [CWH41 C-terminal 12 aa], for which the protein stability index is, setting by setting: under setting [1], 0.634 ± 0.012; (genetic background: wild type) 0.634 ± 0.011.
Regarding YAELAERKKQEN [COX9 C-terminal 12 aa], the protein stability index stood at 0.6916 ± 0.0031 under setting [1] and 0.6914 ± 0.0022 (genetic background: wild type).
The matching figures for YAGENFHHGDKL [ENO2 C-terminal 12 aa]: 0.6954 ± 0.003 and 0.749 ± 0.034.
The matching figures for YCIYQILILVKH [YCL065W C-terminal 12 aa]: 0.149 ± 0.019 and 0.171 ± 0.013.
The matching figures for YDEDEGSDYDFI [SUP45 C-terminal 12 aa]: 0.6992 ± 0.0034 and 0.684 ± 0.012.
On to YDENSKPKGTKE [FUN30 C-terminal 12 aa], for which the protein stability index under setting [1] turned out to be 0.6948 ± 0.0051 and the protein stability index (genetic background: wild type) was determined as 0.704 ± 0.016.
YEAKLSKRILRD [SCM3 C-terminal 12 aa] had a protein stability index under setting [1] of 0.7215 ± 0.0071 and a protein stability index (genetic background: wild type) of 0.723 ± 0.0073.
With YFVNNIIVRIQS [YKL118W C-terminal 12 aa], the protein stability index by setting is: under setting [1], 0.559 ± 0.009; (genetic background: wild type) 0.329 ± 0.028.
For YGVPDAELKIVG [DGA1 C-terminal 12 aa], in that order: 0.719 ± 0.02 and 0.672 ± 0.019.
As to YHLFYMKLQKKI [SPE2 C-terminal 12 aa], the protein stability index is, setting by setting: under setting [1], 0.6977 ± 0.0069; (genetic background: wild type) 0.187 ± 0.013.
YKELKDFIFAEK [GUK1 C-terminal 12 aa]: the protein stability index by setting is: under setting [1], 0.692 ± 0.0077; (genetic background: wild type) 0.727 ± 0.035.
Take YKELVKKIESKN [CIT1 C-terminal 12 aa]: the protein stability index is 0.7257 ± 0.0054 under setting [1] and 0.7078 ± 0.0025 (genetic background: wild type).
The matching figures for YNKLKGAGHKKE [PAI3 C-terminal 12 aa]: 0.6777 ± 0.0045 and 0.645 ± 0.0076.
On to YNLKNDILTNLE [SWI1 C-terminal 12 aa], for which the protein stability index under setting [1] was 0.73 ± 0.021 and the protein stability index (genetic background: wild type) turned out to be 0.651 ± 0.044.
With YVIVFFVYDSLL [YOL046C C-terminal 12 aa], the protein stability index under setting [1] came out at 0.238 ± 0.0075 and the protein stability index (genetic background: wild type) is 0.283 ± 0.015.
